# According to publication PMC10844294:
# Target: 17T2 mAb de-glycosylated with PNGase F (human)
# Assay: SPR
# 17T2 mAb de-glycosylated with PNGase F (human), sequence (heavy, as listed by the source, chain 1 of 2): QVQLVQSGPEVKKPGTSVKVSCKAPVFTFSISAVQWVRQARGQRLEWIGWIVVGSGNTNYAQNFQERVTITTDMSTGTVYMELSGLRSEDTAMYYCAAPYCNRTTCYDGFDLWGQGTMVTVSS
# 17T2 mAb de-glycosylated with PNGase F (human), sequence (light, as listed by the source, chain 2 of 2): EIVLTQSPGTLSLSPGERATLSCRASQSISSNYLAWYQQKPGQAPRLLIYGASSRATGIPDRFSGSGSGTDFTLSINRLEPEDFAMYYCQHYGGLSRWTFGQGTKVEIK
substance,measurement,value
"SARS-CoV-2 spike receptor binding domain, ancestral WH1 (from UniProt P0DTC2 319-541) (domain or fragment)",Kd,0.0749 nM
same,koff,0.00013 s⁻¹
same,kon,1.74e+06 M⁻¹ s⁻¹
